Reference: US10435456B2, “Compositions and methods for increasing the expression and signalling of proteins on cell surfaces” (THE JOHNS HOPKINS UNIVERSITY, priority 2014, dated 2019)
Entries after “also recorded” stand apart in the source; their conditions may differ.

Legend:
mOREG = biological target: T1, mOREG (Mus musculus, UniProt Q920P2); assay: CRE luciferase reporter assay (Firefly:Renilla), mOREG constructs; format: cell-based, murine; settings: Rho-mOREG, Lucy-mOREG, no RTP1S, 100-300 μM eugenol
T1 construct: The mOR-EG full-length construct, containing N-terminal Flag/Rho tags, was a kind gift from Kazushige Touhara; only in the L-EG and L-R-EG constructs) (N, cleaved yes); expressed in transfected cells; host or cells: HEK293T
T1 sequence (Q920P2 1-313): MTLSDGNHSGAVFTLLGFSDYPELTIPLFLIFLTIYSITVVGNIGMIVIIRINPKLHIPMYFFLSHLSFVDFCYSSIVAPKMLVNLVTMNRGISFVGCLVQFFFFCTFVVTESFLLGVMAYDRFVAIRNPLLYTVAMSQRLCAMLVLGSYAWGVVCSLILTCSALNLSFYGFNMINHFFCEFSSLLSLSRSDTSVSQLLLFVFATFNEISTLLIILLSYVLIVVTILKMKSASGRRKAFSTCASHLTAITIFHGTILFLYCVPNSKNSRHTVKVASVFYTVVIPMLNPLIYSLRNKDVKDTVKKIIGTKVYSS
Method: The luciferase assay was performed as previously described. Briefly, ORs were transfected into HEK293T cells along with constructs encoding for CREB-dependent luciferase (Firefly) and a constitutively expressed luciferase (Renilla). OR activation leads to a rise in cAMP which drives an increase in Firefly luciferase expression. Firefly activity is normalized to the activity of the Renilla luciferase to control for variation in cell number and transfection efficiency. Data were collected using a FLUOstar Omega automated platereader (BMG LabTech, Cary, N.C.). For some experiments, RTP1S was also transfected.
As mOREG is one of the ORs that reach the cell surface under every condition tested, we expressed the OR with and without the Lucy and Rho tags and assessed its response to eugenol.

Olfr691 = biological target: T2, Olfr691 (Mus musculus, UniProt Q8VGW5); assay: CRE luciferase reporter assay (Firefly:Renilla), Olfr691 constructs; settings: 0.1-5 mM isovaleric acid
T2 sequence (Q8VGW5 1-322): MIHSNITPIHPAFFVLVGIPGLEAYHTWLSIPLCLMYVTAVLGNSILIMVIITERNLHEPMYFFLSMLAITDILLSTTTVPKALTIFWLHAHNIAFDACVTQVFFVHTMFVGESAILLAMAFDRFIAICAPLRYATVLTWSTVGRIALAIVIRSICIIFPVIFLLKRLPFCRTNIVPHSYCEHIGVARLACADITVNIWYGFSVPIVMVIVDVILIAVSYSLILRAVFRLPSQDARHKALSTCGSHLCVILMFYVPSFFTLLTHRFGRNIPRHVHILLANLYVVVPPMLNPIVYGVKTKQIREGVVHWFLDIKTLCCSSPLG

murine Gpr160 = assay: Surface expression of murine Gpr160; format: cell-based; settings: HEK293T cells
human GPR160 = assay: Surface expression of human GPR160; format: cell-based; settings: HEK293T cells
HEK293T cells = assay: Surface immunocytochemistry of Flag-tagged olfactory receptor constructs; format: cell-based; parameters: key to OR surface expression (trafficking): −: No detectable OR surface expression; +: OR surface expression detected in the majority of fields of view (>90% of all fields of view); *: OR surface expression detected in a minority of fields of view (<50% of all fields of view); settings: for OR surface expression (trafficking): HEK293T
Method: HEK293T cells were seeded onto 18-mm coverslips coated with poly-L-lysine and transfected with OR constructs with or without accessory proteins (Lipofectamine 2000, Invitrogen). Flag-tagged OR trafficking was assayed using surface immunocytochemistry, as previously described. Briefly, live, non-permeabilized cells at 4° C. were exposed to a rabbit polyclonal anti-Flag antibody in PBS with 0.1% BSA. Subsequently, cells were washed, fixed with 4% paraformaldehyde, permeabilized (0.3% Triton X-100) and then exposed to a mouse monoclonal (M2) anti-Flag antibody. As the external Flag epitope (surface Flag) epitope is ‘blocked’ after binding to the polyclonal Flag antibody, the monoclonal Flag antibody detects only the internal population of ORs. […] Fluorescent secondary antibodies reported the localization of the polyclonal and monoclonal Flag-tags. Cells were visualized for epifluorescence using a Zeiss Axiophot microscope (Thornwood, N.Y.). Images were taken with a CoolSnap Digita Camera (Photometrics, Tucson, Ariz.) and IP Labs software (Biovision, Exton, Pa.). For some experiments, a total of 0.8 μg of accessory plasmids (pcDNA3-RTP1S (modified from RTP1L, kind gift from S. Firestein, Columbia Univ.), pCMV Sport6-Ric8b (purchased from Open Biosystems), and pcDNA3.1-Gαolf (subcloned from a pGEMHE2 Gαolf construct, kind gift from S. Firestein, Columbia Univ.)) or 0.8 μg of an empty pcDNA4.1 vector (OR alone) were co-transfected along with 0.8 μg of the OR. In FIGS. 1 and 2, the immunofluorescent images shown in each row (OR, Rho-OR, Lucy-OR and Lucy-Rho-OR with and without accessory proteins) were transfected and processed simultaneously and image exposures remained constant for each OR. Images represent representative fields of view from at least 4 independent experiments. To assess OR surface expression, the entirety of each coverslip was systematically scanned and scored based on detectable surface immunofluorescence. A ‘+’ was scored for those ORs whose surface expression was detectable in >90% of all fields of view while ORs received an ‘*’ if surface expression was found in <50% of all fields of view. A complete lack of detectable surface expression was scored as a ‘−’. To quantitate cell surface expression using ImageJ (FIG. 14), the background was subtracted from the surface labeled Olfr691 images and the mean fluorescence intensity was measured. The mean intensity was normalized to the mean intensity of the corresponding binary nuclear image, to control for cell number.
ORs were cloned and co-expressed in HEK293T cells without Rho or Lucy tags (OR), with a Rho tag (Rho-OR), with the Lucy tag (Lucy-OR) or with both the Lucy and Rho tags (Lucy-Rho-OR) along with (or without) the chaperone proteins, RTP1S, Ric8b and Gαolf. The cells were then surface labeled with a Flag antibody to detect membrane-associated OR. Images were taken for each OR at equal exposure for all conditions. To assess OR surface expression, the entirety of each coverslip was systematically scanned and scored based on detectable surface immunofluorescence. A ‘+’ was scored for those ORs whose surface expression was detectable in >90% of all fields of view while ORs received an ‘*’ if surface expression was found in <50% of all fields of view. A complete lack of detectable surface expression was scored as a ‘−’.
Many ORs remain orphan receptors due to their inability to traffic in in vitro assays. To establish the trafficking ability of a varied group of ORs, we cloned 15 diverse ORs, the majority of which are orphan receptors which have not been previously reported to reach the cell surface. Live, non-permeabilized HEK 293T cells were surface labeled with a Flag antibody to detect membrane associated receptor and OR surface expression was scored based on detectable surface immunofluorescence. […]

[1] = column 1: OR (Flag tag only, no Rho or Lucy tag), chaperones none
[2] = column 2: OR (Flag tag only), with RTP1S, Ric8b, Gαolf
[3] = column 3: Rho-OR, chaperones none
[4] = column 4: Rho-OR, with RTP1S, Ric8b, Gαolf
[5] = column 5: Lucy-OR, chaperones none
[6] = column 6: Lucy-OR, with RTP1S, Ric8b, Gαolf
[7] = column 7: Lucy-Rho-OR, chaperones none
[8] = column 8: Lucy-Rho-OR, with RTP1S, Ric8b, Gαolf

## C=CCc1ccc(O)c(OC)c1 [eugenol]
mOREG
  OR activation (Firefly:Renilla ratio): dose-dependent activation; also recorded: significantly activated

## CC(C)CC(=O)O [isovaleric acid]
Olfr691; Lucy-Rho-Olfr691 with and without RTP1S
  OR activation (Firefly:Renilla ratio): responded to isovaleric acid in a dose-dependent manner
Olfr691; Rho-Olfr691 co-expressed with RTP1S
  OR activation (Firefly:Renilla ratio): dose-dependent increase in the Firefly: Renilla ratio
Olfr691; Rho-Olfr691 without RTP1S
  OR activation (Firefly:Renilla ratio): not significantly activated at any concentration; also recorded: no concentrations of isovaleric acid activated R-691

## Lucy tag: 17-amino acid cleavable signal peptide from LRRC32, MRPQILLLLALLTLGLA (SEQ ID NO:3) (Amino acid sequence of Lucy tag)
Murine Gpr160
  surface expression of murine Gpr160: promotes surface expression
Human GPR160
  surface expression of human GPR160: promotes surface expression

B1: hOR52B2: human homologue of Olfr691, Flag-tagged construct (protein, UniProt Q96RD2 1-323, looked up)
Olfactory receptor 52B2: MSHTNVTIFHPAVFVLPGIPGLEAYHIWLSIPLCLIYITAVLGNSILIVVIVMERNLHVPMYFFLSMLAVMDILLSTTTVPKALAIFWLQAHNIAFDACVTQGFFVHMMFVGESAILLAMAFDRFVAICAPLRYTTVLTWPVVGRIALAVITRSFCIIFPVIFLLKRLPFCLTNIVPHSYCEHIGVARLACADITVNIWYGFSVPIVMVILDVILIAVSYSLILRAVFRLPSQDARHKALSTCGSHLCVILMFYVPSFFTLLTHHFGRNIPQHVHILLANLYVAVPPMLNPIVYGVKTKQIREGVAHRFFDIKTWCCTSPLGS
modifications: Flag tag
notes: human homologue of Olfr691, Flag-tagged construct
HEK293T cells; [1]
  OR surface expression (trafficking): −
HEK293T cells; [2]
  OR surface expression (trafficking): −
HEK293T cells; [3]
  OR surface expression (trafficking): −
HEK293T cells; [4]
  OR surface expression (trafficking): −
HEK293T cells; [5]
  OR surface expression (trafficking): + (OR surface expression detected in the majority of fields of view (>90% of all fields of view))
HEK293T cells; [6]
  OR surface expression (trafficking): + (OR surface expression detected in the majority of fields of view (>90% of all fields of view))
HEK293T cells; [7]
  OR surface expression (trafficking): + (OR surface expression detected in the majority of fields of view (>90% of all fields of view))
HEK293T cells; [8]
  OR surface expression (trafficking): + (OR surface expression detected in the majority of fields of view (>90% of all fields of view))
HEK293T cells; no accessory proteins, 24 h transfection
  surface trafficking, Rho-tagged vs Lucy-Rho-tagged OR, in words: traffic to the surface with but not without the Lucy tag

B2: hOR51E2: human olfactory receptor, Flag-tagged construct (protein, UniProt Q9H255 1-320, looked up)
Olfactory receptor 51E2: MSSCNFTHATFVLIGIPGLEKAHFWVGFPLLSMYVVAMFGNCIVVFIVRTERSLHAPMYLFLCMLAAIDLALSTSTMPKILALFWFDSREISFEACLTQMFFIHALSAIESTILLAMAFDRYVAICHPLRHAAVLNNTVTAQIGIVAVVRGSLFFFPLPLLIKRLAFCHSNVLSHSYCVHQDVMKLAYADTLPNVVYGLTAILLVMGVDVMFISLSYFLIIRTVLQLPSKSERAKAFGTCVSHIGVVLAFYVPLIGLSVVHRFGNSLHPIVRVVMGDIYLLLPPVINPIIYGAKTKQIRTRVLAMFKISCDKDLQAVGGK
modifications: Flag tag
notes: human olfactory receptor, Flag-tagged construct
HEK293T cells; [1]
  OR surface expression (trafficking): + (OR surface expression detected in the majority of fields of view (>90% of all fields of view))
HEK293T cells; [2]
  OR surface expression (trafficking): + (OR surface expression detected in the majority of fields of view (>90% of all fields of view))
HEK293T cells; [3]
  OR surface expression (trafficking): + (OR surface expression detected in the majority of fields of view (>90% of all fields of view))
HEK293T cells; [4]
  OR surface expression (trafficking): + (OR surface expression detected in the majority of fields of view (>90% of all fields of view))
HEK293T cells; [5]
  OR surface expression (trafficking): + (OR surface expression detected in the majority of fields of view (>90% of all fields of view))
HEK293T cells; [6]
  OR surface expression (trafficking): + (OR surface expression detected in the majority of fields of view (>90% of all fields of view))
HEK293T cells; [7]
  OR surface expression (trafficking): + (OR surface expression detected in the majority of fields of view (>90% of all fields of view))
HEK293T cells; [8]
  OR surface expression (trafficking): + (OR surface expression detected in the majority of fields of view (>90% of all fields of view))
